From US7858322B2, “Method of determining inhibition of binding to TRPM7 protein” (NoNo, Inc., priority 2003, dated 2010)
No end group written: not given here. *: point of attachment. Biotin = O=C1N[C@H]2[C@H](CS[C@H]2CCCCC(=O)*)N1

What was measured:
Experiment in all cases: G assays, titrations or binding assays of peptides
RIM2 d1 = target: T1, RIM2 d1 (Homo sapiens, UniProt Q9UQ26); conditions: peptide demonstrated to bind RIM2 d1 in G assays
T1 construct: made in house; host or cells: E. coli (DH5α, BL21 or JM109)
T1 sequence (Q9UQ26 632-757): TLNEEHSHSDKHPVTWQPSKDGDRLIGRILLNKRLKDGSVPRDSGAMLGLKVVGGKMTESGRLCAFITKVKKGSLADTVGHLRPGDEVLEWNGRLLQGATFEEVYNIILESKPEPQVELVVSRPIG
Description: (§1) In one aspect, the invention provides an assay in which a GST/PDZ fusion protein is immobilized on a surface (G assay). […] In a preferred embodiment, the assay is carried out as follows:
(§2) (1) A PDZ-domain polypeptide is bound to a surface, e.g. a protein binding surface. In a preferred embodiment, a GST/PDZ fusion protein containing one or more PDZ domains is bound to a polystyrene 96-well plate. […] In one embodiment, the GST/PDZ fusion protein is bound via an anti-GST antibody that is coated onto the 96-well plate. Adequate binding to the plate can be achieved when: • a. 100 μl per well of 5 μg/ml goat anti-GST polyclonal antibody (Pierce) in PBS is added to a polystyrene 96-well plate (e.g., Nunc Polysorp) at 4° C. for 12 hours. • b. The plate is blocked by addition of 200 μl per well of PBS/BSA for 2 hours at 4° C. • c. The plate is washed 3 times with PBS. • d. 50 μl per well of 5 μg/ml GST/PDZ fusion protein) or, as a negative control, GST polypeptide alone (i.e. not a fusion protein) in PBS/BSA is added to the plate for 2 hours at 4° C. • e. the plate is again washed 3 times with PBS.
(§3) (2) Biotinylated PL peptides are allowed to react with the surface by addition of 50 μl per well of 20 μM solution of the biotinylated peptide in PBS/BSA for 10 minutes at 4° C., followed by an additional 20 minute incubation at 25° C. The plate is washed 3 times with ice cold PBS.
(§4) (3) The binding of the biotinylated peptide to the GST/PDZ fusion protein surface can be detected using a variety of methods and detectors known to one of skill in the art. In one embodiment, 100 μl per well of 0.5 μg/ml streptavidin-horseradish peroxidase (HRP) conjugate dissolved in BSA/PBS is added and allowed to react for 20 minutes at 4° C. The plate is then washed 5 times with 50 mM Tris pH 8.0 containing 0.2% Tween 20, and developed by addition of 100 μl per well of HRP-substrate solution (TMB, Dako) for 20 minutes at room temperature (RT). The reaction of the HRP and its substrate is terminated by addition of 100 μl per well of 1 M sulfuric acid, and the optical density (O.D.) of each well of the plate is read at 450 um.
(§5) (4) Specific binding of a PL peptide and a PDZ domain polypeptide is determined by comparing the signal from the well(s) in which the PL peptide and PDZ domain polypeptide are combined, with the background signal(s). […] Typically a specific or selective reaction will be at least twice background signal, more typically more than 5 times background, and most typically 10 or more times the background signal. […] Correspondingly, a statistical test (e.g. a T-test) comparing repeated measurements of the signal with repeated measurements of the background will result in a p-value <0.05, more typically a p-value <0.01, and most typically a p-value <0.001 or less. As noted, in an embodiment of the G assay, the signal from binding of a given PL peptide to immobilized (surface bound) GST polypeptide alone is one suitable negative control (sometimes referred to as B1). Because all measurement are done in multiples (i.e. at least duplicate) the arithmetic mean (or, equivalently, average.) of several measurements is used in determining the binding, and the standard error of the mean is used in determining the probable error in the measurement of the binding. The standard error of the mean of N measurements equals the square root of the following: the sum of the squares of the difference between each measurement and the mean, divided by the product of (N) and (N−1). Thus, in one embodiment, specific binding of the PDZ protein to the platebound peptide is determined by comparing the mean signal (“mean S”) and standard error of the signal (“SE”) for a particular PL-PDZ combination with the mean B1.

PAR3 d3 = target: T2, PAR3 d3 (Homo sapiens, UniProt Q8TEW0, R682S); conditions: peptide demonstrated to bind PAR3 d3 in G assays
T2 construct: made in house; host or cells: E. coli (DH5α, BL21 or JM109)
Description: as §1, §2, §3, §4, §5

ZO-1 d2 = target: T3, ZO-1 d2 (Homo sapiens, UniProt Q07157, DEL264-264); conditions: peptide demonstrated to bind ZO-1 d2 in G assays
T3 construct: made in house; host or cells: E. coli (DH5α, BL21 or JM109)
T3 sequence (Q07157 with tags, fused parts or gaps DEL264-264): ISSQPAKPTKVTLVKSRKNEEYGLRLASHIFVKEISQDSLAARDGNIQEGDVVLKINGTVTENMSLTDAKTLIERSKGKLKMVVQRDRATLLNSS
Description: as §1, §2, §3, §4, §5

INADL d3 = target: T4, INADL d3 (Homo sapiens, UniProt Q8NI35); conditions: peptide demonstrated to bind INADL d3 in G assays
T4 construct: made in house; host or cells: E. coli (DH5α, BL21 or JM109)
T4 sequence (Q8NI35 with tags, fused parts or gaps): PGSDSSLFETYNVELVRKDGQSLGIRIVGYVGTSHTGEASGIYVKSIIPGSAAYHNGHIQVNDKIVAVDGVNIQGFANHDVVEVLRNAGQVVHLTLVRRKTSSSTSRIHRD
Description: as §1, §2, §3, §4, §5

T2 sequence (Q8TEW0 with tags, fused parts or gaps R682S): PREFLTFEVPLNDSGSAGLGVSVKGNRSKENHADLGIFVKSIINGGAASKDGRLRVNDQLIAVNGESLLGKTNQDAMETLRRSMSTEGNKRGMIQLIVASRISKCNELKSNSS

Row | Sequence | POZ domain bound (RIM2 d1) | POZ domain bound (PAR3 d3) | POZ domain bound (ZO-1 d2) | POZ domain bound (INADL d3)
1 | YGRKKRRQRRRGMTSSSSVV (Biotin-YGRKKRRQRRRGMTSSSSVV) | RIM2 D1 | – | – | –
2 | KAGYRAPRSYPKSNSSKEYV (Biotin-KAGYRAPRSYPKSNSSKEYV) | – | PAR3 D3 | – | –
3 | YGRKKRRQRRRQDEEEGIWA (Biotin-YGRKKRRQRRRQDEEEGIWA) | RIM2 D1 | – | ZO-1 D2 | –
4 | YSATYSELEDPGEMSPPIDL (Biotin-YSATYSELEDPGEMSPPIDL) | – | – | – | INADL D3
5 | YGRKKRRQRRRARGDRKKIV (Biotin-YGRKKRRQRRRARGDRKKIV) | RIM2 D1 | – | – | –
6 | RRRRRRRGTNPAVAATSANL (Biotin-RRRRRRRGTNPAVAATSANL) | – | – | ZO-1 D2 | –
7 | PSSRASSRASSRPRPDDLEI (Biotin-PSSRASSRASSRPRPDDLEI) | – | – | ZO-1 D2 | –
8 | DGGARTEDEVQSYPSKHDYV (Biotin-DGGARTEDEVQSYPSKHDYV) | – | PAR3 D3 | – | –
9 | FHSKTAGANTTDKELEVLSL (Biotin-FHSKTAGANTTDKELEVLSL) | RIM2 D1 | PAR3 D3 | ZO-1 D2 | INADL D3
10 | YGRKKRRQRRRSEGVPDLLV | – | PAR3 D3 | ZO-1 D2 | –
11 | SSPDSSYQGKGFVMSRAMYV (Biotin-SSPDSSYQGKGFVMSRAMYV) | – | PAR3 D3 | – | –
12 | TTNNNPNSAVNIKKIFTDV (Biotin-TTNNNPNSAVNIKKIFTDV) | – | – | ZO-1 D2 | INADL D3
13 | YGRKKRRQRRRSVTSTSINL (Biotin-YGRKKRRQRRRSVTSTSINL) | RIM2 D1 | – | – | –
14 | YGRKKRRQRRRARGDRRRIV (Biotin-YGRKKRRQRRRARGDRRRIV) | RIM2 D1 | – | – | –
15 | YGRKKRRQRRRQDEEEGIWS (Biotin-YGRKKRRQRRRQDEEEGIWS) | RIM2 D1 | – | – | –
16 | YGRKKRRQRRRGASADSTQA | RIM2 D1 | PAR3 D3 | ZO-1 D2 | –
17 | YGRKKRRQRRRARSDRKRIV (Biotin-YGRKKRRQRRRARSDRKRIV) | RIM2 D1 | – | – | –
18 | KTMPAAMFRLLTGQETPLYI (Biotin-KTMPAAMFRLLTGQETPLYI) | – | PAR3 D3 | – | –
19 | VPSDNIDSQGRNASTNDSLL (Biotin-VPSDNIDSQGRNASTNDSLL) | – | – | – | INADL D3
20 | PGQPPKVKSEFNSYSLTGYV (Biotin-PGQPPKVKSEFNSYSLTGYV) | – | PAR3 D3 | – | INADL D3

Row | Sequence | POZ domain bound (RIM2 d1) | POZ domain bound (PAR3 d3) | POZ domain bound (ZO-1 d2) | POZ domain bound (INADL d3)
21 | YGRKKRRQRRRQDEEETIWA (Biotin-YGRKKRRQRRRQDEEETIWA) | RIM2 D1 | – | – | –
22 | YGRKKRRQRRRAVAATYSNL (Biotin-YGRKKRRQRRRAVAATYSNL) | RIM2 D1 | – | ZO-1 D2 | –
23 | SSSRRDSSWSETSEASYSGL (Biotin-SSSRRDSSWSETSEASYSGL) | RIM2 D1 | – | ZO-1 D2 | –
24 | KTMPAAMYRLLTAQEQPVYI (Biotin-KTMPAAMYRLLTAQEQPVYI) | – | PAR3 D3 | – | –
25 | RRRRRRRGNTTDKELEVLSL (Biotin-RRRRRRRGNTTDKELEVLSL) | – | – | ZO-1 D2 | –
26 | YGRKKRRQRRRARGDVRLML (Biotin-YGRKKRRQRRRARGDVRLML) | RIM2 D1 | – | – | –
27 | YVYSRVKNLNSSEGVPDLLV | – | – | ZO-1 D2 | –
28 | LQFHRGSRAQSFLQTETSVI (Biotin-LQFHRGSRAQSFLQTETSVI) | – | PAR3 D3 | – | INADL D3
29 | YGRKKRRQRRREYLGLDVPV | RIM2 D1 | PAR3 D3 | ZO-1 D2 | INADL D3
30 | KTMPAATYRLLTGQEQPVYL (Biotin-KTMPAATYRLLTGQEQPVYL) | – | PAR3 D3 | – | –
31 | YGRKKRRQRRRARGDRKRWA (Biotin-YGRKKRRQRRRARGDRKRWA) | RIM2 D1 | – | ZO-1 D2 | –
32 | LNSCSNRRVYKKMPSIESDV (Biotin-LNSCSNRRVYKKMPSIESDV) | – | – | ZO-1 D2 | INADL D3
33 | LERTSSVSPSTAEPELSIVF (Biotin-LERTSSVSPSTAEPELSIVF) | – | PAR3 D3 | – | –
34 | YGRKKRRQRRRQDERVETRV (Biotin-YGRKKRRQRRRQDERVETRV) | RIM2 D1 | – | – | –
35 | YGRKKRRQRRRARSDRKRIA (Biotin-YGRKKRRQRRRARSDRKRIA) | RIM2 D1 | – | – | –
36 | YGRKKRRQRRRAVAATGIWA (Biotin-YGRKKRRQRRRAVAATGIWA) | RIM2 D1 | – | – | –
37 | LASKSAEEGKQIPDSLSTDL (Biotin-LASKSAEEGKQIPDSLSTDL) | – | PAR3 D3 | – | INADL D3
38 | YGRKKRRQRRRLQRRRETQV (Biotin-YGRKKRRQRRRLQRRRETQV) | RIM2 D1 | – | – | –
39 | SLIGPVQKEYQRELGKLSSP (Biotin-SLIGPVQKEYQRELGKLSSP) | – | – | – | INADL D3
40 | KHSRKSSSYSSSSTTVKTSY (Biotin-KHSRKSSSYSSSSTTVKTSY) | RIM2 D1 | PAR3 D3 | ZO-1 D2 | INADL D3

Row | Sequence | POZ domain bound (RIM2 d1) | POZ domain bound (PAR3 d3) | POZ domain bound (ZO-1 d2) | POZ domain bound (INADL d3)
41 | TEGNESSEATSPVNAIYSLA (Biotin-TEGNESSEATSPVNAIYSLA) | – | – | ZO-1 D2 | –
42 | HAMNAAPRAMENAPALRTSH (Biotin-HAMNAAPRAMENAPALRTSH) | – | – | – | INADL D3
43 | YGRKKRRQRRRARSDRGIWA (Biotin-YGRKKRRQRRRARSDRGIWA) | RIM2 D1 | – | ZO-1 D2 | –
44 | QGDPALQDAGDSSRKEYFI (Biotin-QGDPALQDAGDSSRKEYFI) | – | PAR3 D3 | – | –
45 | ENLELPVNPSSWSERISSV | – | – | – | INADL D3
46 | YGRKKRRQRRRARGDRKRIV | RIM2 D1 | – | ZO-1 D2 | –
47 | YGRKKRRQRRRARGDRKRWL (Biotin-YGRKKRRQRRRARGDRKRWL) | RIM2 D1 | – | ZO-1 D2 | –
48 | YGRKKRRQRRRARGDRLEIV (Biotin-YGRKKRRQRRRARGDRLEIV) | RIM2 D1 | – | – | –
49 | ELLQFCRTPNPALKNGQYWV (Biotin-ELLQFCRTPNPALKNGQYWV) | – | PAR3 D3 | ZO-1 D2 | INADL D3
50 | NYKLNTDHAGSNDNIALLVQ | RIM2 D1 | – | ZO-1 D2 | –
51 | YGRKKRRQRRRAVAATSANL | RIM2 D1 | PAR3 D3 | ZO-1 D2 | INADL D3
52 | KYSAPRRPTATGDYDKKNYV (Biotin-KYSAPRRPTATGDYDKKNYV) | – | PAR3 D3 | – | –
53 | RSGATIPLVGQDIIDLQTEV (Biotin-RSGATIPLVGQDIIDLQTEV) | – | – | – | INADL D3
54 | YGRKKRRQRRRDKELEVLSL | – | – | ZO-1 D2 | –
55 | YGRKKRRQRRRSRTVREIWA (Biotin-YGRKKRRQRRRSRTVREIWA) | RIM2 D1 | – | – | –
56 | STDNLVRPFMDTLASHQLYI (Biotin-STDNLVRPFMDTLASHQLYI) | – | PAR3 D3 | – | INADL D3
57 | VDPNSPAAKKKYVSYNNLVI (Biotin-VDPNSPAAKKKYVSYNNLVI) | RIM2 D1 | PAR3 D3 | ZO-1 D2 | INADL D3
58 | YGRKKRRQRRRAVAAASANL (Biotin-YGRKKRRQRRRAVAAASANL) | RIM2 D1 | – | ZO-1 D2 | –
